Data reported in paper doi:10.1101/2023.03.09.531510.

Experiments:
Test in all cases: protein-fragment complementation
[1] = target: Hsp104 (UniProt P31539)
[2] = target: Sfk1 (UniProt P35735)
[3] = target: Myo5 (UniProt Q04439)
[4] = target: Cdc3 (UniProt P32457)
[5] = target: Aim21 (UniProt P40563)
[6] = target: Tdh3 (UniProt P00359)
[7] = target: Rvs167 (UniProt P39743)
[8] = target: Yor1 (UniProt P53049)
[9] = target: Mid2 (UniProt P36027)
[10] = target: Smi1 (UniProt P32566)
[11] = target: Ssb1 (UniProt P11484)
[12] = target: Sac6 (UniProt P32599)
[13] = target: Pab1 (UniProt P04147)
[14] = target: Chc1 (UniProt P22137)
[15] = target: Hek2 (UniProt P38199)
[16] = target: Syp1 (UniProt P25623)
[17] = target: Cdc10 (UniProt P25342)
[18] = target: Srv2 (UniProt P17555)
[19] = target: Cmd1 (UniProt P06787)
[20] = target: Sla1 (UniProt P32790)
[21] = target: Ste20 (UniProt Q03497)
[22] = target: Vrp1 (UniProt P37370)
[23] = target: Nap1 (UniProt P25293)
[24] = target: Osh2 (UniProt Q12451)
[25] = target: Arc40 (UniProt P38328)
[26] = target: Sbp1 (UniProt P10080)
[27] = target: Bmh1 (UniProt P29311)
[28] = target: Bzz1 (UniProt P38822)
[29] = target: Bbc1 (UniProt P47068)
[30] = target: Sla2 (UniProt P33338)
[31] = target: Ssb2 (UniProt P40150)
[32] = target: Ygl242c (UniProt P53066)
[33] = target: Arc18 (UniProt Q05933)
[34] = target: Pan1 (UniProt P32521)
[35] = target: Ssa1 (UniProt P10591)
[36] = target: Pkh2
[37] = target: Arc19 (UniProt P33204)
[38] = target: Tif4631 (UniProt P39935)
[39] = target: Las17 (UniProt Q12446)
[40] = target: Lsb3 (UniProt P43603)
[41] = target: Arc15 (UniProt P40518)
[42] = target: Ysc84 (UniProt P32793)
[43] = target: Ssz1 (UniProt P38788)
[44] = target: Pfk1 (UniProt P16861)

Sequence of UniProt P00359 (P00359 whole entry): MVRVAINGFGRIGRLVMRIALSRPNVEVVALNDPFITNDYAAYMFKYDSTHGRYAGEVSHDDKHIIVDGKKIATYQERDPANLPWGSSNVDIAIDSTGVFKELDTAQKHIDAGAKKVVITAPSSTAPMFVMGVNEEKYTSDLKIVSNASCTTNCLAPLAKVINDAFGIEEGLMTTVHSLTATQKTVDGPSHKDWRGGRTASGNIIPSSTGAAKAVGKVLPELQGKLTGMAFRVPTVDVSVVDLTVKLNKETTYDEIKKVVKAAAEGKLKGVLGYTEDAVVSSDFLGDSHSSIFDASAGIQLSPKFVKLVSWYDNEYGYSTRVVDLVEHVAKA
Sequence of UniProt P35735 (P35735 whole entry): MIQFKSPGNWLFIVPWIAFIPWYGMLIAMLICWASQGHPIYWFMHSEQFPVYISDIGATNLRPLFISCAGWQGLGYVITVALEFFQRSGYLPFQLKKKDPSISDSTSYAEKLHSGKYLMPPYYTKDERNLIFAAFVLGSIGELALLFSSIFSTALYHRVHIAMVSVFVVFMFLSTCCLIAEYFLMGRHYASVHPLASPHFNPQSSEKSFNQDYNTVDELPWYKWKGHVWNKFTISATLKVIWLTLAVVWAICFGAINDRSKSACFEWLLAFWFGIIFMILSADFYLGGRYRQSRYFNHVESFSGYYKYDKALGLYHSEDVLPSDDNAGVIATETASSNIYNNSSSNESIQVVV
Sequence of UniProt P25342 (P25342 whole entry): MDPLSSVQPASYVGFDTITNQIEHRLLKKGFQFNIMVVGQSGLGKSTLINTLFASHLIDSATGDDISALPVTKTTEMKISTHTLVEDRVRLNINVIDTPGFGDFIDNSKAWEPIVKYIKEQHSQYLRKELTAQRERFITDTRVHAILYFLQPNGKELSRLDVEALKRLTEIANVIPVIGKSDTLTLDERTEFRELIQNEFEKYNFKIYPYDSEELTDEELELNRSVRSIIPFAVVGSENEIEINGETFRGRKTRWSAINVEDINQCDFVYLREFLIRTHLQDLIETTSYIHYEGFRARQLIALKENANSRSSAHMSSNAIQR
Sequence of UniProt P25293 (P25293 whole entry): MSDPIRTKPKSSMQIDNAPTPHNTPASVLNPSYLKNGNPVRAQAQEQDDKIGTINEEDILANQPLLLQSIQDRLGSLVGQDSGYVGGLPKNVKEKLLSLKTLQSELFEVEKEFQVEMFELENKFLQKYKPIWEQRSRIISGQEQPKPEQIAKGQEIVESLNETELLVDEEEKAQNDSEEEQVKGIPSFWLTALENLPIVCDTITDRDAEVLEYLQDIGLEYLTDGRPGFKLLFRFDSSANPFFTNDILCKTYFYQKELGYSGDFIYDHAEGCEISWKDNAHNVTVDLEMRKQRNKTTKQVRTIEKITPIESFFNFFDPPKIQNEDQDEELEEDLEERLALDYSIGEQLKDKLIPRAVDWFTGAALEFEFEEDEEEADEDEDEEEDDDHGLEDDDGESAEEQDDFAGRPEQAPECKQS
Sequence of UniProt P39743 (P39743 whole entry): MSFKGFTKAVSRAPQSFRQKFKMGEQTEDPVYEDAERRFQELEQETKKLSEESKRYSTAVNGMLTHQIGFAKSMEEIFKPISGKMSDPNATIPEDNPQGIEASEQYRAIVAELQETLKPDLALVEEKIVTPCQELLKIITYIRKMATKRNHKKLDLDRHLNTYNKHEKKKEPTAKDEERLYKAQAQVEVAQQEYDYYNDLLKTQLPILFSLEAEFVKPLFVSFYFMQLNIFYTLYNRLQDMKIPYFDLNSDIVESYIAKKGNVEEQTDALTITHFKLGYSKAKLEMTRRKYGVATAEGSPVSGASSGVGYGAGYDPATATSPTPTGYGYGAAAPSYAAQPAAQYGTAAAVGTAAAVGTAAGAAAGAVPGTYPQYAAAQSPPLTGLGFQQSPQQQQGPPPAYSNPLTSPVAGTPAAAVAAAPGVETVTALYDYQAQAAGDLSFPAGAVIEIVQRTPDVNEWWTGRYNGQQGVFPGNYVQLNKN
Sequence of UniProt P04147 (P04147 whole entry): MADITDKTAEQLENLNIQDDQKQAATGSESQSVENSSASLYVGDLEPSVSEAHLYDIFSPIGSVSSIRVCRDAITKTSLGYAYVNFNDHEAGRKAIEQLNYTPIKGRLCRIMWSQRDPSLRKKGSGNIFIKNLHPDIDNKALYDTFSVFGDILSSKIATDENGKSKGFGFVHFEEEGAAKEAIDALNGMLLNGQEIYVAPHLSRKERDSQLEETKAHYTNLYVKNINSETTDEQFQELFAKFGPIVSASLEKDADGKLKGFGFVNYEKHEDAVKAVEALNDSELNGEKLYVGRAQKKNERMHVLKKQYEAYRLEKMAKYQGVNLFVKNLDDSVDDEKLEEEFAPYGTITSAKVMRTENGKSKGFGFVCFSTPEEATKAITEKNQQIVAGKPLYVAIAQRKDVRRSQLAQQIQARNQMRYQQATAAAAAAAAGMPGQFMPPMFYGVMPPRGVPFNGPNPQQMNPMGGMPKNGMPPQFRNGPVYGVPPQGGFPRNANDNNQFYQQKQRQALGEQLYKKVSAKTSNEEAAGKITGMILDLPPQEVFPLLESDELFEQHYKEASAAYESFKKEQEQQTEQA
Sequence of UniProt Q12451 (Q12451 whole entry): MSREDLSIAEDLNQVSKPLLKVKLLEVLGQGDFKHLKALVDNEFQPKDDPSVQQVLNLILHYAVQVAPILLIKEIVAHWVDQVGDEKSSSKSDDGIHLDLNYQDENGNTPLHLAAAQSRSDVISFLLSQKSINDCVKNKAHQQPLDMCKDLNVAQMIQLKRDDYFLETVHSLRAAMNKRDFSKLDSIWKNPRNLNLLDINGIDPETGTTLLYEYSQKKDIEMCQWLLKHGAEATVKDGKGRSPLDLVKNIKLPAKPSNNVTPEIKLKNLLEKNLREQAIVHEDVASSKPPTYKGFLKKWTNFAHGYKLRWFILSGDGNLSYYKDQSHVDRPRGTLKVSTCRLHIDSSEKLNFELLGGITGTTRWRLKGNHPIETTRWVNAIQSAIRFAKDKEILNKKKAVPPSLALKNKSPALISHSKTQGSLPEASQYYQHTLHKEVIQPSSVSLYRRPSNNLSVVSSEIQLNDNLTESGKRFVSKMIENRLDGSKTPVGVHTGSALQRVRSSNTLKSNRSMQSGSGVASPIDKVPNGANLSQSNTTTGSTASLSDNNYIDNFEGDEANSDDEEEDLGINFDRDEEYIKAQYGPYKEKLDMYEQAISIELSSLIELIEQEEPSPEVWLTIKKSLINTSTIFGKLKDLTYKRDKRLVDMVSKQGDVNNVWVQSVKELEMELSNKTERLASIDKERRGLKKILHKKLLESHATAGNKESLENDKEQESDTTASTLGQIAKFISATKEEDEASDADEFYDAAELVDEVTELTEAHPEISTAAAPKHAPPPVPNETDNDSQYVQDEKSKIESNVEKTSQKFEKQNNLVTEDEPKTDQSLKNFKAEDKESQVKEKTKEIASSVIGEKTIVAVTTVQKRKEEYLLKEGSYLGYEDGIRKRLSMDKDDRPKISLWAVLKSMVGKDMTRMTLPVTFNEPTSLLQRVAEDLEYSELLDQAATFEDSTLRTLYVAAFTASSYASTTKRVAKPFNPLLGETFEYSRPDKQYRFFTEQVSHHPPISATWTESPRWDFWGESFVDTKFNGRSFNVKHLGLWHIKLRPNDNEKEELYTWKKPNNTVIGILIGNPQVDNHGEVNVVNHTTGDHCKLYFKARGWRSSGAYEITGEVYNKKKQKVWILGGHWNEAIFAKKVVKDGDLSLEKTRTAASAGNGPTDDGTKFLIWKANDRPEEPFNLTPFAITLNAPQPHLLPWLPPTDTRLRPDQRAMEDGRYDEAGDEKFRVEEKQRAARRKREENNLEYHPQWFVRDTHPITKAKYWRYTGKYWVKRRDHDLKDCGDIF
Sequence of UniProt P32566 (P32566 whole entry): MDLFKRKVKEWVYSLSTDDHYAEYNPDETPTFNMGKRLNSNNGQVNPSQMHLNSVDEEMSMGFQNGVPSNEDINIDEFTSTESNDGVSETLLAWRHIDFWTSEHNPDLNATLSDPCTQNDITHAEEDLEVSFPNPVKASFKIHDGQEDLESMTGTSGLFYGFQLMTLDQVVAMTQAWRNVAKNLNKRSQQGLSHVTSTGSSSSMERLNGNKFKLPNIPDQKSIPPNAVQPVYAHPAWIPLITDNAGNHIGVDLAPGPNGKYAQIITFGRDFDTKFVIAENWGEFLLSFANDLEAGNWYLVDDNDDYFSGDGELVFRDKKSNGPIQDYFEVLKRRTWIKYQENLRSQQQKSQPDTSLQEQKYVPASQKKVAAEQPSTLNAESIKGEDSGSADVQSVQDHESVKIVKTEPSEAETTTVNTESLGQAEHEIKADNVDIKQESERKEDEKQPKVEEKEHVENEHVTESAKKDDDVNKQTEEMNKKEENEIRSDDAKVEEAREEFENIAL
Sequence of UniProt P10080 (P10080 whole entry): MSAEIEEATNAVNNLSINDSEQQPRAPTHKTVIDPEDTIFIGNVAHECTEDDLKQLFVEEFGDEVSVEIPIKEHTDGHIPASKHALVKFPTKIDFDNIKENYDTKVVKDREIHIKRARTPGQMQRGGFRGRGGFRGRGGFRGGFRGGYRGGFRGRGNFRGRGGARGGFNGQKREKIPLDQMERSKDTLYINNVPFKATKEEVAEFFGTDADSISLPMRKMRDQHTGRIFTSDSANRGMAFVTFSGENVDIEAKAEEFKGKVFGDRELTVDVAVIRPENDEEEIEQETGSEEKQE
Sequence of UniProt P33204 (P33204 whole entry): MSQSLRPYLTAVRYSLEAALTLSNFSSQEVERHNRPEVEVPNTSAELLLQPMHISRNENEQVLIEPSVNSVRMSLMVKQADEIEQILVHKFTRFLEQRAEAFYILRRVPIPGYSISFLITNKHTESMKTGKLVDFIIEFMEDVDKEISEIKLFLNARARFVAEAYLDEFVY
Sequence of UniProt Q05933 (Q05933 whole entry): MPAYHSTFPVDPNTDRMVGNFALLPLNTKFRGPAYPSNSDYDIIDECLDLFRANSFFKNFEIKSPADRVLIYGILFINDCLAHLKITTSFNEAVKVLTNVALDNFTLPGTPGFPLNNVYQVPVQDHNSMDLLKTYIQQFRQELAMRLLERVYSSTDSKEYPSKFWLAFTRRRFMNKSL

Work on “Myo5 with SH3 swap-optMyo3 (from UniProt Q04439)” yielded an interaction score [1] of 0.774, an interaction score [2] of 0.746 and an interaction score [3] of 0.907. It also gave an interaction score [4] of 0.457, an interaction score [5] of 0.767 and an interaction score [6] of 0.971. It also gave an interaction score [7] of 0.53, an interaction score [8] of 0.481 and an interaction score [9] of 0.868. The interaction score [10] was 0.562, the interaction score [11] was 0.942 and the interaction score [12] was 0.836. It also gave an interaction score [13] of 0.795, an interaction score [14] of 0.598 and an interaction score [15] of 0.401. For the same substance, the interaction score [16] was 0.543, the interaction score [17] was 0.379 and the interaction score [18] was 0.656. For the same substance, the interaction score [19] was 0.458, the interaction score [20] was 0.56 and the interaction score [21] was 0.425. It also gave an interaction score [22] of 0.92, an interaction score [23] of 0.482 and an interaction score [24] of 0.762. It also gave an interaction score [25] of 0.97, an interaction score [26] of 0.835 and an interaction score [27] of 0.833. For the same substance, the interaction score [28] was 0.835, the interaction score [29] was 0.767 and the interaction score [30] was 0.664. For the same substance, the interaction score [31] was 0.935, the interaction score [32] was 0.944 and the interaction score [33] was 0.88. The interaction score [34] was 0.936, the interaction score [35] was 0.91 and the interaction score [36] was 0.095. The interaction score [37] was 0.78, the interaction score [38] was 0.689 and the interaction score [39] was 0.879. The interaction score [40] was 0.643, the interaction score [41] was 0.903 and the interaction score [42] was 0.475.

In the case of “Myo5 with SH3 AncB (from UniProt Q04439)”, the interaction score [1] was 0.767, the interaction score [2] was 0.733 and the interaction score [3] was 0.901. The interaction score [4] was 0.515, the interaction score [5] was 0.755 and the interaction score [6] was 0.97. For the same substance, the interaction score [7] was 0.567, the interaction score [8] was 0.488 and the interaction score [9] was 0.854. For the same substance, the interaction score [10] was 0.562, the interaction score [11] was 0.941 and the interaction score [12] was 0.823. The interaction score [13] was 0.797, the interaction score [14] was 0.603 and the interaction score [15] was 0.417. It also gave an interaction score [16] of 0.564, an interaction score [17] of 0.416 and an interaction score [18] of 0.649. The interaction score [19] was 0.497, the interaction score [20] was 0.568 and the interaction score [21] was 0.482. It also gave an interaction score [22] of 0.919, an interaction score [23] of 0.52 and an interaction score [24] of 0.755. The interaction score [25] was 0.964, the interaction score [26] was 0.832 and the interaction score [27] was 0.823. It also gave an interaction score [28] of 0.818, an interaction score [29] of 0.758 and an interaction score [30] of 0.646. It also gave an interaction score [31] of 0.932, an interaction score [32] of 0.942 and an interaction score [33] of 0.878. For the same substance, the interaction score [34] was 0.926, the interaction score [43] was 0.834 and the interaction score [36] was 0.0795. It also gave an interaction score [37] of 0.771, an interaction score [38] of 0.672 and an interaction score [39] of 0.875. It also gave an interaction score [40] of 0.637, an interaction score [41] of 0.898 and an interaction score [42] of 0.505. For the same substance, the interaction score [44] was 0.867.

For “Myo5 with SH3 SH3-depleted (from UniProt Q04439)”, the interaction score [1] was 0.771, the interaction score [2] was 0.219 and the interaction score [3] was 0.763. For the same substance, the interaction score [4] was 0.288, the interaction score [5] was 0.454 and the interaction score [6] was 0.969. The interaction score [7] was 0.0148, the interaction score [8] was 0.144 and the interaction score [9] was 0.79. For the same substance, the interaction score [10] was 0.547, the interaction score [11] was 0.94 and the interaction score [12] was 0.766. For the same substance, the interaction score [13] was 0.813, the interaction score [14] was 0.599 and the interaction score [15] was 0.342. For the same substance, the interaction score [16] was 0.199, the interaction score [17] was 0.289 and the interaction score [18] was 0.398. The interaction score [19] was 0.27, the interaction score [20] was 0.27 and the interaction score [21] was 0.28. For the same substance, the interaction score [22] was 0.606, the interaction score [23] was 0.514 and the interaction score [24] was 0.0609. For the same substance, the interaction score [25] was 0.949, the interaction score [26] was 0.852 and the interaction score [27] was 0.821. It also gave an interaction score [28] of 0.34, an interaction score [29] of 0.139 and an interaction score [30] of 0.341. It also gave an interaction score [31] of 0.946, an interaction score [32] of 0.95 and an interaction score [33] of 0.775. The interaction score [34] was 0.616, the interaction score [43] was 0.853 and the interaction score [37] was 0.469. For the same substance, the interaction score [38] was 0.689, the interaction score [39] was 0.367 and the interaction score [40] was 0.339. The interaction score [41] was 0.877, the interaction score [42] was 0.281 and the interaction score [44] was 0.874.
